Experimental data: patent publication US20250163149A1, “ANTI-RAGE ANTIBODY” (Swansea University, priority 2022, published 2025)

Assays:
RAGE [1] = biological target: T1, RAGE (Homo sapiens, UniProt Q15109); assay: Binding target blocking assay by immunofluorescence on HEC-1A cells; format: cell-based; parameters: endogenous in cells; host or cells: HEC-1A (ECACC); conditions: then antibody at 4 μg/ml
Description: To proof that HA9 shares similar binding epitope as other α-RAGE antibodies, an immunofluorescence approach was used. For this purpose, 1.5×10^4 HEC1A cells/well (obtained from the European Collection of Authenticated Cell Cultures, ECACC, Public Health England, UK) were seeded in 8-well chamber slides (Ibidi) in 300 μl of stripped medium and cultured for 24 h in a humidified, 5% CO2 in air atmosphere incubator at 37° C. After culture, cells were fixed with 4% paraformaldehyde (Sigma) for 20 minutes, permeabilized with 0.1% Triton X-100 (Sigma) for 10 minutes at 4° C. and blocked with 3% BSA in PBS for 1 h. Cells were then pre-incubated with a primary antibody against RAGE at a concentration in excess (20 μg/ml in 3% BSA in PBS for 1 h) to block the specific epitope they bind, before cells were incubated with the α-RAGE antibody of interest at 4 μg/ml in 3% BSA-PBS overnight at 4° C. This was followed by 1 h incubation with Alexa-fluorophore-conjugated secondary antibodies. Cells were washed with PBS extensively between all steps, counterstained before imaging with Hoechst (Life Technologies™) and imaged using a LSM710 confocal fluorescence microscopy system (Zeiss, UK). The mean intensity of fluorescence was obtained using imageJ by measuring the integrated density per imaged field, normalised by the number of cells in the respective field and obtaining the mean from >10 fields obtained per condition. A decrease in fluorescence in the pre-blocked condition compared with the not-pre-blocked condition means both antibodies share similar epitope of binding on the same protein.

RAGE [2] = biological target: T1, RAGE; assay: Western blot on protein extracts from human healthy tissues; conditions: brain, breast, kidney, liver, lung, ovary, pancreas, spleen and uterus
RAGE synthetic peptide = biological target: T2, RAGE synthetic peptide (Homo sapiens, UniProt Q15109); assay: Surface plasmon resonance binding kinetics (Biacore T200), synthetic peptide analyte; conditions: chimeric antibodies and AB11451
T2 construct: purchased Biorad; host or cells: chemical synthesis
Description: For on-rate and off-rate screening, Biacore™ T200 system (Cytiva, Uppsala, Sweden) was used to perform SPR analysis with 1×HBS-EP+ buffer (0.01M Hepes, 0.15M NaCl, 0.003M ethylenediaminetetraacetic acid, and 0.05% Surfactant P20, pH 7.4) (BR100669) used as sample and running buffer. The analysis temperature at the sensor chip surface and within the compartment was set to 25° C. Firstly, pH scouting with 10 mM sodium acetate buffer 4.0 (BR-1003-49), 10 mM sodium acetate buffer 4.5 (BR-1003-50), 10 mM sodium acetate buffer 5.0 (BR-1003-51) and 10 mM sodium acetate buffer 5.5 (BR-1003-52) was performed to identify the optimal pH required for ligand (α-RAGE antibodies) immobilization. This was followed by diluting the ligand with the appropriate Acetate buffer to at least 10 μg/mL. The ligand immobilization on the surface Series S Sensor Chip CM5 (29-1496-03, Cytiva) was performed using the Amine Coupling Kit (BR100050, Cytiva) containing 1-Etyhyl-3-(3-dimethylaminopropyl)-carbodiimide hydrochloride (EDC), N-Hydroxysuccinimide (NHS) and 1.0M ethanolamine-HcL PH 8.5 in accordance with the manufacturer's instructions. For each experimental run, the ligand was immobilized in flow cells 2 or 4 while flow cells 1 or 3 were left unmodified. Flow cells 2 and 4 were used as active flow cells while flow cells 1 and 3 were used as reference flow cells. […]

SKOV3 cells = assay: Internalisation assay on SKOV3 cells; format: cell-based, human; conditions: for uptake (internalisation), secondary antibody detection: 4 h or 24 h at 37° C.
Description: To screen internalization capacity and traffic to lysosomes of α-RAGE antibodies, all the primary antibodies used in the screening were conjugated to pHAb Amine Reactive Dye following manufacturer's instructions (Promega, UK, Cat. No. G983). This type of dye emits fluorescence when traffics to acidic environments (late endosome and lysosome). For this purpose, 1.5×10^4 SKOV3 cells/well were seeded in 8-well chamber slides (Ibidi) in 300 μl of stripped medium and cultured for 24 h in a humidified, 5% CO2 in air atmosphere incubator at 37° C. After culture, cells were washed in pre-warmed (37° C.) Dulbecco's phosphate buffered saline (DPBS) and slides placed on ice. Cells were treated with control medium or medium containing one of the α-RAGE antibodies conjugated to pH-dye at 10 μg/ml, and the 8-well chamber slides were incubated on ice for 30 minutes. Slides were then transferred to the incubator at 37° C. for 4 h or 24 h. After internalization time, cells were washed in DPBS, fixed in 4% paraformaldehyde for 20 min and permeabilized with 0.1% Triton X-100 (Sigma) for 10 minutes at 4° C. Cells were washed with PBS extensively between all steps, counterstained before imaging with Hoechst (Life Technologies™) and imaged using a LSM710 confocal fluorescence microscopy system (Zeiss, UK). Unconjugated α-RAGE antibodies were also used in the internalisation assay. In this case were visualized using Alexa-fluorophore secondary antibodies as described in the immunofluorescence method.

T1 sequence (Q15109 23-404): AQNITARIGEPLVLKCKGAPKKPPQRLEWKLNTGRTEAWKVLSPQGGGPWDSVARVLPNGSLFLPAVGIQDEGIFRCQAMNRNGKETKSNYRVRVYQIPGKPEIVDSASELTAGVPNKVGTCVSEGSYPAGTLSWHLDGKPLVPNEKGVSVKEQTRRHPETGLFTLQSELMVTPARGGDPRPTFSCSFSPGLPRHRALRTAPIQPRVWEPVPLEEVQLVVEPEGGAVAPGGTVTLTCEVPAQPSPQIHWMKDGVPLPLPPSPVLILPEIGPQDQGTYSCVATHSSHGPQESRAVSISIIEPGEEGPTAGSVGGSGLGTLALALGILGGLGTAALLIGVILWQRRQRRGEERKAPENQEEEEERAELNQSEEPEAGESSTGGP
T2 sequence (Q15109 39-65 limits assumed): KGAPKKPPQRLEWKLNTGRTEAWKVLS

staining after Abcam antibody pre-blocking (RAGE [1]; Abcam antibody 20 μg/ml pre-incubation): did not result in a decrease
staining after N16 pre-blocking (RAGE [1]; N16 20 μg/ml pre-incubation): statistically significant decrease
RAGE expression detected in human healthy tissues (RAGE [2]): absent or very low expression
binding affinity to the new synthetic peptides (RAGE synthetic peptide): the affinity is weak
B1: hHA9: chimeric humanised format of anti-RAGE antibody clone HA9 (antibody, V domains shown)
VH: EVKLVETGGGLVQPGRPMKLSCVASGFTLSDHWMNWVRQSPEKGLEWVAQIRNRPYKFEKYYSDSVKGRFTISRDDSKNSVYLQMNNLRAEDMGIYYCSSYRYGLAYWGQGTLVTVST
VL: DNLLTQSPAILSVSPGERVSFSCRASQTIDTRIHWYQQRKNGSPRLLIRYISESLSGIPSRFSGSGSGTEFTLTINSVESEDIADYYCQQTESWPITFGSGTKLEIK
uptake (internalisation), secondary antibody detection (SKOV3 cells; compared with other clones and AB11451, listed as chimeric HA9): highest uptake
uptake (internalisation), secondary antibody detection (SKOV3 cells; compared with other clones and AB11451, listed as chimeric-HA9): better uptake
uptake of pH-dye conjugated antibody (SKOV3 cells; pHAb dye conjugate 10 μg/ml, 4 h or 24 h): highest uptake and traffics efficiently to acidic endosomes
